From article PMC11764276 (2024)
Read-outs that look alike come from different tables or passages of the source.

Experiments:
Assay in all cases: SPR
[1] = biological target: T1, RBD (residues 334–527 of the SARS-CoV-2 spike glycoprotein) (SARS-CoV-2, UniProt P0DTC2 334-527)
[2] = biological target: T1, RBD (residues 334–527 of the SARS-CoV-2 …); remark: listed apart in the source
[3] = biological target: T1, RBD (residues 334–527 of the SARS-CoV-2 …); remark: listed apart in the source

Binder	koff [1]	Kd [2]	Kd [3]
2196_CDRL3_RP (antibody, V domains shown) VH: QMQLVQSGPEVKKPGTSVKVSCKASGFTFMSSAVQWVRQARGQRLEWIGWIVIGSGNTNYAQKFQERVTITRDMSTSTAYMELSSLRSEDTAVYYCAAPYCSSISCNDGFDIWGQGTMVTVSS VL: not shown	0.12 s⁻¹	204 nM	203 nM
DMAb-2196_CDRL3_P (antibody, V domains shown) VH: QMQLVQSGPEVKKPGTSVKVSCKASGFTFMSSAVQWVRQARGQRLEWIGWIVIGSGNTNYAQKFQERVTITRDMSTSTAYMELSSLRSEDTAVYYCAAPYCSSISCNDGFDIWGQGTMVTVSS VL: not shown	0.1 s⁻¹		88.5 nM
2196 HC + 2072 LC (antibody, V domains shown) VH: QMQLVQSGPEVKKPGTSVKVSCKASGFTFMSSAVQWVRQARGQRLEWIGWIVIGSGNTNYAQKFQERVTITRDMSTSTAYMELSSLRSEDTAVYYCAAPYCSSISCNDGFDIWGQGTMVTVSS VL: not shown	0.0309 s⁻¹		
2196_CDRL1_des1 (antibody, V domains shown) VH: QMQLVQSGPEVKKPGTSVKVSCKASGFTFMSSAVQWVRQARGQRLEWIGWIVIGSGNTNYAQKFQERVTITRDMSTSTAYMELSSLRSEDTAVYYCAAPYCSSISCNDGFDIWGQGTMVTVSS VL: EIVLTQSPGTLSLSPGERATLSCRASQTISNNFVAWYQQKPGQAPRLLIYGASSRATGIPDRFSGSGSGTDFTLTISRLEPEDFAVYYCQHYGSSRGWTFGQGTKVEIK	0.0823 s⁻¹		47.6 nM
2196_CDRL1_des2 (antibody, V domains shown) VH: QMQLVQSGPEVKKPGTSVKVSCKASGFTFMSSAVQWVRQARGQRLEWIGWIVIGSGNTNYAQKFQERVTITRDMSTSTAYMELSSLRSEDTAVYYCAAPYCSSISCNDGFDIWGQGTMVTVSS VL: EIVLTQSPGTLSLSPGERATLSCRASQTISNSYVAWYQQKPGQAPRLLIYGASSRATGIPDRFSGSGSGTDFTLTISRLEPEDFAVYYCQHYGSSRGWTFGQGTKVEIK	0.0216 s⁻¹		
2196_CDRL3_GP (antibody, V domains shown) VH: QMQLVQSGPEVKKPGTSVKVSCKASGFTFMSSAVQWVRQARGQRLEWIGWIVIGSGNTNYAQKFQERVTITRDMSTSTAYMELSSLRSEDTAVYYCAAPYCSSISCNDGFDIWGQGTMVTVSS VL: not shown	0.0133 s⁻¹		
2196 WT (recombinant mAb COV2-2196) (antibody, V domains shown) VH: QMQLVQSGPEVKKPGTSVKVSCKASGFTFMSSAVQWVRQARGQRLEWIGWIVIGSGNTNYAQKFQERVTITRDMSTSTAYMELSSLRSEDTAVYYCAAPYCSSISCNDGFDIWGQGTMVTVSS VL: not shown	0.0133 s⁻¹		
2196_CDRL3_Q (antibody, V domains shown) VH: QMQLVQSGPEVKKPGTSVKVSCKASGFTFMSSAVQWVRQARGQRLEWIGWIVIGSGNTNYAQKFQERVTITRDMSTSTAYMELSSLRSEDTAVYYCAAPYCSSISCNDGFDIWGQGTMVTVSS VL: not shown	0.0171 s⁻¹		
